Experimental data: article PMC9126983, “Structural insights into the mechanism of archaellar rotational switching” (Nature Communications, 2022)
“And” between values parts separate entries of the source, which are not always exact repeats. Equal entries are not always repeated. Blank lines part the entries; values can stand above or below the molecule they belong to.

B1: Methanococcus maripaludis CheY, activated with BeF3- (phosphorylated state mimicked) (natural protein, UniProt Q6LYQ5 1-123, looked up)
chain: MASIVKTMIVDDSAFMRNILKRILSTTNKYVVIGEAANGADAIKMAEELQPDLISMDIVMPETDGITATKAIKEKTPEIKIVMCTSVDQEQKMIDAVNAGADGYIVKPFQAPKILEQFNKLFP
modifications: BeF3- phosphomimic (2 mM BeF2 and 20 mM NaF in the buffer); phosphorylation site D57
notes: CheY of Methanococcus maripaludis; The same protein as m10, in buffer with 2 mM BeF2, 20 mM NaF and 20 mM MgCl2; also called CheY-P; source: E. coli BL21 (DE3), purified (Ni-NTA, SEC)
B2: GST-MmCheFCTD (domain or fragment)
chain: IKSLLPKSEDDLDSEMAVESWSGDKLKNEVEQLAPEEQEILTAIYTGITSLELPGMMGMDIDEVEKVLEKLIDQGFLDLVRIRKETDLTEKGRAVTNFIITNF
modifications: GST carrier left out; limits taken as the C-terminal 103 residues (246-348, F348 terminal) used in the CheY:CheFCTD fusion, exact limits are in Fig. S3a; fusion is mainly a dimer by mass photometry /
B3: GST-MmCheFCTD (domain or fragment)
chain: B2 chain

Key:
[1] = target: Methanococcus maripaludis CheF (Methanococcus maripaludis); assay: mass photometry; OneMP mass photometer; protein stocks diluted in HEPES buffer; typical working concentrations of MmCheF 25–50 nM
[2] = target: FliM 1-249 (Thermotoga maritima) (UniProt Q9WZE6); conditions: cited from earlier work
[3] = target: Pyrococcus horikoshii CheF (Pyrococcus horikoshii); assay: mass photometry; OneMP mass photometer; protein stocks diluted in HEPES buffer; typical working concentrations of MmCheF 25–50 nM
[4] = target: Thermococcus kodakarensis CheF (Thermococcus kodakarensis); assay: as above
FliM FliMN peptide = FliM FliMN peptide (UniProt P06974); conditions: cited from earlier work
GST-MmCheFCTD [5] = target: B3; assay: ITC; GST-MmCheFCTD (25 µM) in the sample cell, titrated with MmCheY; 25 °C; 20 mM HEPES-Na pH 7.5, 200 mM NaCl, 20 mM KCl, 20 mM MgCl2, 20 mM NaF, 2 mM BeF2; conditions: both partners purified
GST-MmCheFCTD [6] = target: B3; assay: mass photometry; OneMP mass photometer; protein stocks diluted in HEPES buffer; typical working concentrations of MmCheF 25–50 nM; conditions: both partners purified
[7] = target: B1; assay: ITC; GST-MmCheFCTD (25 µM) in the sample cell, titrated with MmCheY; 25 °C; 20 mM HEPES-Na pH 7.5, 200 mM NaCl, 20 mM KCl, 20 mM MgCl2, 20 mM NaF, 2 mM BeF2; conditions: both partners purified

FliM 1-249 (Thermotoga maritima), sequence (Q9WZE6 1-249): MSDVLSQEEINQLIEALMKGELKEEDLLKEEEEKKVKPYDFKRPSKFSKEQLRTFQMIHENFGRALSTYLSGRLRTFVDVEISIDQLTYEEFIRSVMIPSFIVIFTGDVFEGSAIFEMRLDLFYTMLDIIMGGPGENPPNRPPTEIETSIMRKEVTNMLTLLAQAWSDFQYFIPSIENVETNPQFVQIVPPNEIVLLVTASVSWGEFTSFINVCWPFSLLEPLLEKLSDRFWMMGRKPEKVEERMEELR

- stoichiometry N [1]: 2
Molecule: Methanococcus maripaludis CheF (natural protein)

Molecule: CheY (from UniProt Q56312)
- Kd [2]: 39 nM

- percent of observations in the dimer species [3]: 89%
- stoichiometry N [3]: 2
Molecule: Pyrococcus horikoshii CheF (natural protein)

- stoichiometry N [4]: 2
Molecule: Thermococcus kodakarensis CheF (natural protein)

Molecule: CheY (from UniProt P0AE67)
- Kd (FliM FliMN peptide): 27000 nM

Molecule: B1
- stoichiometry N (GST-MmCheFCTD [5]): 1

Molecule: B2
- stoichiometry N (GST-MmCheFCTD [6]): 2 and 4

Molecule: B3
- Kd [7]: 1240 ± 414 nM
